Results on 1 protein are retold here after US20250207166.

Data set [1] concerns the target T1, chalcone synthase-like A (ChSA).
T1 chain: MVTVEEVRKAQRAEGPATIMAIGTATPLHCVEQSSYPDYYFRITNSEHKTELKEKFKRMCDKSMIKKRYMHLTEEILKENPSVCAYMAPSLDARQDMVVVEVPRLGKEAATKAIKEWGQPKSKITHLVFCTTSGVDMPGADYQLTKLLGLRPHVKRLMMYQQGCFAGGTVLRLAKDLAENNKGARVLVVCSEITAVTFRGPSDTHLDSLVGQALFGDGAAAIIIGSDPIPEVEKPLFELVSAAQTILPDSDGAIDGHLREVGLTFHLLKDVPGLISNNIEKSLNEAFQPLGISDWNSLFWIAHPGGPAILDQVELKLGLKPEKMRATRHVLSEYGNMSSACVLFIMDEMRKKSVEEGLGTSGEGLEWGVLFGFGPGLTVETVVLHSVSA

In data set [2] the target is T2, chalcone synthase-like C (ChSC).
T2 chain: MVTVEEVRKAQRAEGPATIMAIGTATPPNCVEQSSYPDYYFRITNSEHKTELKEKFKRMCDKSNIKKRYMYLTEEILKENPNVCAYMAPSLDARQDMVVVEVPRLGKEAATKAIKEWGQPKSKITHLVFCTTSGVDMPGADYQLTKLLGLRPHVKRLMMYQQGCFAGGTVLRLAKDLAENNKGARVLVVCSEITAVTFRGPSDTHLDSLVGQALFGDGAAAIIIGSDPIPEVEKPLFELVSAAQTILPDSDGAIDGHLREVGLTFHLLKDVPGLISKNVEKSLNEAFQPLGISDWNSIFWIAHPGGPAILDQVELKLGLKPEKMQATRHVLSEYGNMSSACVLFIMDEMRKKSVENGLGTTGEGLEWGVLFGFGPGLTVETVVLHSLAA

Data set [3] deals with T3, chalcone synthase-like B (ChSB).
T3 chain: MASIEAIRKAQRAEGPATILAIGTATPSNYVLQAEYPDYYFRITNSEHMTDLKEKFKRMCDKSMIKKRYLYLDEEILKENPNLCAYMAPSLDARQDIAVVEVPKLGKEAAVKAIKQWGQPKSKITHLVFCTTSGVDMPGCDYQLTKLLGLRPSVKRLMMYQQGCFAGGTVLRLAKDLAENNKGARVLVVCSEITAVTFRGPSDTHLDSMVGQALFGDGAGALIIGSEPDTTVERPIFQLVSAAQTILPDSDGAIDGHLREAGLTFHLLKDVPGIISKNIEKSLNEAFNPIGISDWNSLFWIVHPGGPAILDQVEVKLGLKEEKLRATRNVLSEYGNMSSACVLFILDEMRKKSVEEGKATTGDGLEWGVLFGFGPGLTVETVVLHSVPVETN

Data set [4] deals with T4, chalcone synthase-like F (ChSF).
T4 chain: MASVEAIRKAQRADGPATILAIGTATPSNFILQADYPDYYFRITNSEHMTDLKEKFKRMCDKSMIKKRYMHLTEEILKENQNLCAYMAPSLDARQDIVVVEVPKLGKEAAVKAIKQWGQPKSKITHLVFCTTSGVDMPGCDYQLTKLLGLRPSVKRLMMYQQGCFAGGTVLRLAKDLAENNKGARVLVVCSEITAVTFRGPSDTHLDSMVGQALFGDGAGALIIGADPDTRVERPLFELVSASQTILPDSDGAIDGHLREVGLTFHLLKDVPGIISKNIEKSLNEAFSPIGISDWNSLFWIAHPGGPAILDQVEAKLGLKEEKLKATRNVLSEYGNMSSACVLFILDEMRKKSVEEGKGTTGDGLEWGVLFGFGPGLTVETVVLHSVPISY

The target in data set [5] is T5, chalcone synthase-like D (ChSD).
T5 chain: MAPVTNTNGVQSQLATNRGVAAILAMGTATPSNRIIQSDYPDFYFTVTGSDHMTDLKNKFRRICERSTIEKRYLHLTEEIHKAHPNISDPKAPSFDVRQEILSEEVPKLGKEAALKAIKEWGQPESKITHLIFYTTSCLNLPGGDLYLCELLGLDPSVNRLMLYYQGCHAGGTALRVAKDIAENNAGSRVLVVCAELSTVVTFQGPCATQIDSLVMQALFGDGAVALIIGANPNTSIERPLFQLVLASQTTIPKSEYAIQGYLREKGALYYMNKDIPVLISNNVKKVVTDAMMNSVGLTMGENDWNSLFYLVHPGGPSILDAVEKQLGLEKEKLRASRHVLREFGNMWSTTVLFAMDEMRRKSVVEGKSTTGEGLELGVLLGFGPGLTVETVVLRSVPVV

B1: chalcone synthase-like E (ChSE) (protein)
chain: MGSLDQDFQPNQVPTIRADAATVLAIGTANPPNCIPQAEFADFYFRVTNSNHMTDLKKKFKRICEKSSIKKRYVHLTEKILNENPNICTFKEPSLTARQNIATEEIPKLGKEAALKAIEEWGRPKSEITHLVFCTIGGAEMPSADYQLVHLLGLNPSVKRFMLYYQGCFAGGSVLRLAKDLAENNVGARVLVVCAEVSIPYFHGPSEAHFDSNLIWQMLCGDGAGAAIVGSNPRKLIERPLFQLVSASQTIVPNSEGAIKGTLSEMGIIFNLVDKVPVLIGNNIENCLEEAFGSLGISNWNSLFWVAHPGGPAILNQIEEKLKLKEEKLKASRHVLSEYGNMSSACVFFILDEMRRRSKEEGKITTGDGLEWGVLFGFGPGLTVETIVLRSISTNEAH
In the case of B1, the “levels of product (QA-TriR-FRX-C9) in N. benthamiana leaves, ChS pairs co-infiltrated” value in data set [1] is “Pairing ChSE with ChSA, ChSC, CHSD or CHSF increased the levels of product made compared to either ChSE by itself or to the combination of all ChSs but ChSE”; in data set [2], “Pairing ChSE with ChSA, ChSC, CHSD or CHSF increased the levels of product made compared to either ChSE by itself or to the combination of all ChSs but ChSE”; in data set [4], “Pairing ChSE with ChSA, ChSC, CHSD or CHSF increased the levels of product made compared to either ChSE by itself or to the combination of all ChSs but ChSE”; in data set [5], “Pairing ChSE with ChSA, ChSC, CHSD or CHSF increased the levels of product made compared to either ChSE by itself or to the combination of all ChSs but ChSE”. In addition, the “levels of product (QA-TriR-FRX-C9) in N. benthamiana leaves, ChS pairs co-infiltrated (repeat experiment)” value in data set [3] is reported as “In a repeat experiment, ChSB paired with ChSE also led to a noticeable increase of product”. Moreover, in the data set with other ChS candidates, the “levels of QA-TriR-FRX-C9 in N. benthamiana leaves (drop-out of one of six co-infiltrated ChS candidates)” value is “The levels of QA-TriR-FRX-C9 were not affected except when ChSE was absent”. In data set [5], the “QA-TriR-FRX-C9 amounts in N. benthamiana leaves, triads of ChSs co-infiltrated” value is given as “the triads containing ChSD consistently had higher QA-TriR-FRX-C9 amounts than those without”.
